This note sets out measurements from paper PMC2811071.

The target in this data set is T1, raver1 RRM1 (human (Homo sapiens), UniProt Q8IY67 59-130).
T1 sequence: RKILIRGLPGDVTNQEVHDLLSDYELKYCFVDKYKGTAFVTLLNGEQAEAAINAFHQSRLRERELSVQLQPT
Nature of the data set: ITC. On the technique in general: Isothermal titration calorimetry measures the heat released or taken up as one component is titrated into another.

Take UCAUGCAGUCUG (ssRNA) [vinculin mRNA 12-mer]: the binding result is on record as “binds”.
